# Data taken from the supplement of paper PMC10724198.
# ± gives the standard deviation of the averaged measurements.
# System: Saccharomyces cerevisiae
# Assay: protein stability index of tFT-peptide fusion (C-terminal peptide) (PSI (0-1 scale)); higher = more stable (slower turnover)
# Conditions: genetic background: wild type; temperature: 30 C
# Experimental: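 MPS profiling in S. cerevisiae of the yeast C-terminome library: the last 12 aa of each annotated ORF are fused to the C-terminus of a sfGFP-mCherry timer, after a GGGS linker. Cells are FACS-sorted into 8 mCherry/sfGFP bins and deep-sequenced. PSI runs from 0 (unstable) to 1 (stable); wild type and das1Δ backgrounds, two technical replicates each.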
row,Sequence,protein stability index
1,PVIKKSKKCAIL [CDC42 C-terminal 12 aa],0.6072 ± 0.0055
2,PVRHQTGMHFCI [YHR032W-A C-terminal 12 aa],0.682 ± 0.029
3,PVVFHSGPVVWK [YLR415C C-terminal 12 aa],0.6969 ± 0.0058
4,PYLEEAYSNLEE [PPX1 C-terminal 12 aa],0.722 ± 0.048
5,QCPVCRSPLPPL [TUL1 C-terminal 12 aa],0.742 ± 0.013
6,QEAGAFTFNEDF [RNR2 C-terminal 12 aa],0.711 ± 0.0081
7,QEFVCFLFWPLT [YOR335W-A C-terminal 12 aa],0.6034 ± 0.0059
8,QELCADSTIYHM [LIP1 C-terminal 12 aa],0.734 ± 0.065
9,QELLKLLENEKK [SLK19 C-terminal 12 aa],0.726 ± 0.047
10,QFSFKAVTFLLI [YOR314W-A C-terminal 12 aa],0.563 ± 0.052
11,QILLDKLNAVKK [HIT1 C-terminal 12 aa],0.653 ± 0.019
12,QKDSRGKKKIKK [YMR114C C-terminal 12 aa],0.63611 ± 0.00024
13,QKKEEAKHKASE [UFD2 C-terminal 12 aa],0.721 ± 0.067
14,QNNSQGFLREII [TDA7 C-terminal 12 aa],0.6925 ± 0.0034
15,QNRFISINKIFW [YDR133C C-terminal 12 aa],0.6671 ± 0.0016
16,QRRTSLDYGGYF [TAF3 C-terminal 12 aa],0.725 ± 0.011
17,QSLVESPPPYVP [SNA4 C-terminal 12 aa],0.7 ± 0.015
18,QTQLCKRKKKLT [VIK1 C-terminal 12 aa],0.608 ± 0.051
19,QTVSTYTKVTPK [NCE103 C-terminal 12 aa],0.702 ± 0.025
20,QVLGTEEPTVRT [PGM2 C-terminal 12 aa],0.6625 ± 0.0017
21,QVVDTIKDVHRC [YBR197C C-terminal 12 aa],0.706 ± 0.021

row,Sequence,protein stability index
1,RALVDAIQLRGV [CGI121 C-terminal 12 aa],0.663 ± 0.0088
2,RDFFFKNVCVKM [TBS1 C-terminal 12 aa],0.56 ± 0.0057
3,RDLQSALVRQLL [CAD1 C-terminal 12 aa],0.68 ± 0.021
4,RDRLVESCHFTQ [CIN4 C-terminal 12 aa],0.706 ± 0.022
5,RDVTDWWESREI [CCZ1 C-terminal 12 aa],0.7652 ± 0.0026
6,REKAEAEAEKKK [RPL13A C-terminal 12 aa],0.68 ± 0.0053
7,RELGFLFGLNAL [ULS1 C-terminal 12 aa],0.6855 ± 0.0018
8,RELWDEEKEIVL [KES1 C-terminal 12 aa],0.73 ± 0.037
9,RERAKKLVTWLI [SSY1 C-terminal 12 aa],0.475 ± 0.026
10,RFIRTANKKDYL [IMP4 C-terminal 12 aa],0.7335 ± 0.0025
11,RHHEQSHGQEDH [YLR361C-A C-terminal 12 aa],0.6868 ± 0.0011
12,RHICVGAKLCKF [MCH4 C-terminal 12 aa],0.818 ± 0.11
13,RHSCGRQMRVLA [AUA1 C-terminal 12 aa],0.248 ± 0.0083
14,RIEMDLALTEPL [ORC6 C-terminal 12 aa],0.685 ± 0.015
15,RIRQEIIKTKLL [EMP47 C-terminal 12 aa],0.234 ± 0.032
16,RKESSGGCCIIC [RAS1 C-terminal 12 aa],0.709 ± 0.011
17,RKLLERSNKFHI [PET127 C-terminal 12 aa],0.746 ± 0.088
18,RKPPGFFDEGFM [FLC3 C-terminal 12 aa],0.6965 ± 0.0051
19,RKSENYLNGRQT [YNL067W-B C-terminal 12 aa],0.721 ± 0.0088
20,RKVPYKIIPYVY [ERG24 C-terminal 12 aa],0.5005 ± 0.0021
21,RLANIQSFFQRQ [TVP23 C-terminal 12 aa],0.726 ± 0.064

row,Sequence,protein stability index
1,RLIGELGKLTED [YNL115C C-terminal 12 aa],0.701 ± 0.037
2,RLLNLQKVIYST [LDB18 C-terminal 12 aa],0.493 ± 0.064
3,RMIEYLEEYQAW [FRE4 C-terminal 12 aa],0.72 ± 0.011
4,RNIDVSNLPSLA [STM1 C-terminal 12 aa],0.6785 ± 0.0067
5,RQVLDREGLRFG [TRS31 C-terminal 12 aa],0.705 ± 0.0087
6,RRDVQSRSSMAC [HFL1 C-terminal 12 aa],0.652 ± 0.0097
7,RREKRNKALKER [CGR1 C-terminal 12 aa],0.6945 ± 0.0019
8,RRKLKGRWFLSH [MRX14 C-terminal 12 aa],0.562 ± 0.0085
9,RRRLTYHRYHPK [YML009C-A C-terminal 12 aa],0.722 ± 0.012
10,RSASNRHVDYFL [PPG1 C-terminal 12 aa],0.698 ± 0.033
11,RSKLFNLSINNP [SPC72 C-terminal 12 aa],0.6855 ± 0.0063
12,RSRKNEGSYLMH [HMT1 C-terminal 12 aa],0.693 ± 0.0082
13,RSVYDYNGSLKV [CSR1 C-terminal 12 aa],0.691 ± 0.015
14,RTKGQKWFDGLM [NAT2 C-terminal 12 aa],0.698 ± 0.016
15,RTSPIDNVSNTH [NUT2 C-terminal 12 aa],0.693 ± 0.046
16,RYNDERLGPVQG [IRC24 C-terminal 12 aa],0.684 ± 0.043
17,SAGSLEYTARYM [YML012C-A C-terminal 12 aa],0.671 ± 0.0079
18,SANGYKRRRYGN [YHC1 C-terminal 12 aa],0.732 ± 0.055
19,SASGKKKINKNN [ELO1 C-terminal 12 aa],0.723 ± 0.042
20,SDDNNDENMDLD [SSE2 C-terminal 12 aa],0.663 ± 0.018
21,SDDQILREFLYS [IRE1 C-terminal 12 aa],0.7 ± 0.025

row,Sequence,protein stability index
1,SDISDLDDLGFL [RPN3 C-terminal 12 aa],0.679 ± 0.028
2,SDLQKMLNKRKS [CWC24 C-terminal 12 aa],0.682 ± 0.0099
3,SDMYDSKRLLYV [YPL035C C-terminal 12 aa],0.537 ± 0.034
4,SELENKFSNQES [FPY1 C-terminal 12 aa],0.735 ± 0.053
5,SETFATPTPNNR [SPC42 C-terminal 12 aa],0.725 ± 0.01
6,SFALVFKISAEV [YAR053W C-terminal 12 aa],0.489 ± 0.022
7,SFDDGRVKRQRT [IOC3 C-terminal 12 aa],0.715 ± 0.075
8,SFMSYSCDMPTP [YCL022C C-terminal 12 aa],0.727 ± 0.071
9,SFNFDHFDHFDL [YIL054W C-terminal 12 aa],0.743 ± 0.014
10,SGGWDRSIKLWN [PRP4 C-terminal 12 aa],0.681 ± 0.026
11,SGNYFFLDNTGI [RLI1 C-terminal 12 aa],0.754 ± 0.056
12,SGSGVHVIKRVG [ESS1 C-terminal 12 aa],0.65 ± 0.019
13,SGWSNFEDFFSR [YKL222C C-terminal 12 aa],0.77 ± 0.019
14,SIKLTFGFGAVL [AHA1 C-terminal 12 aa],0.711 ± 0.0087
15,SIQWIWRYSFVY [YIR020C C-terminal 12 aa],0.44 ± 0.025
16,SKDLGNVLTNLL [ESF2 C-terminal 12 aa],0.679 ± 0.035
17,SKFIEKFQDIVS [MED1 C-terminal 12 aa],0.712 ± 0.018
18,SKKNVLYQKKNN [RTT107 C-terminal 12 aa],0.286 ± 0.014
19,SKLVKEYSVELR [MSF1 C-terminal 12 aa],0.663 ± 0.05
